{"source": "patent EP1730287B1", "about": "(Syngenta Participations AG, dated 2011)", "molecular_target": "T1, NIM450 bait (first 450 amino acids of the NIM1 protein fused to the LexA DNA binding domain) (Arabidopsis, UniProt P0A7C2 1-202; P93002 1-450)", "T1 construct": "Truncated bait of the yeast two-hybrid screen", "T1 sequence (looked up)": "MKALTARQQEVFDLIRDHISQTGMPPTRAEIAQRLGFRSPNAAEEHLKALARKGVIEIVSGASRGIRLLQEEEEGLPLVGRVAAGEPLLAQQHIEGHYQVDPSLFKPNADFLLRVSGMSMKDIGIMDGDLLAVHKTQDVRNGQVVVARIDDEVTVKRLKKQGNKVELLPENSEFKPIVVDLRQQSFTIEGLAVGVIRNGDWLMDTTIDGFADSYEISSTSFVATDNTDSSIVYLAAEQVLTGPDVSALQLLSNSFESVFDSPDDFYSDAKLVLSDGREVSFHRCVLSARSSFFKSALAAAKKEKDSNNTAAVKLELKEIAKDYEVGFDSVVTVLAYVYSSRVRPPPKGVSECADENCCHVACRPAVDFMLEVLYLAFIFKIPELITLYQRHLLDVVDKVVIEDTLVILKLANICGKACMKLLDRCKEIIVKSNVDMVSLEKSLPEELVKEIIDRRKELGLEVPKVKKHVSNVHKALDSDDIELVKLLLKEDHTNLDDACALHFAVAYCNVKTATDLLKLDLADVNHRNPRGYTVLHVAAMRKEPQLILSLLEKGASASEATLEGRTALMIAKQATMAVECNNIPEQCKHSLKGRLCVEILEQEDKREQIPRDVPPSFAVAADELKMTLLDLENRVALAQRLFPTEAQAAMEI", "assay": "yeast two-hybrid (LexA bait, B42 prey; Leu2 and LacZ reporters)"}
{"binder": "NI16 clone (Arabidopsis NI16 cDNA clone from the pJG4-5 library, fused to the B42 transcriptional activation domain) (other, not shown: large carriers, Prey of the yeast two-hybrid screen; also called NI16 protein) MNNSLKKEERVEEDNGKSDGNRGKPSTEVVRTVTEEEVDEFFKILRRVHVATRTVAKVNGGVAEGELPSKKRKRSQNLGLRNSLDCNGVRDGEFDEINRVGLQGLGLDLNCKPEPDSVSLSL", "values": [{"measurement": "binding result", "value": "no binding"}]}
